B1: CER112: Chimeric engulfment receptor: Tim4 binding, Tim4 transmembrane, TRAF6 and NFAM1 signaling; SEQ ID NO: 148 (protein)
chain: MSKGLLLLWLVTELWWLYLTPAASEDTIIGFLGQPVTLPCHYLSWSQSRNSMCWGKGSCPNSKCNAELLRTDGTRIISRKSTKYTLLGKVQFGEVSLTISNTNRGDSGVYCCRIEVPGWFNDVKKNVRLELRRATTTKKPTTTTRPTTTPYVTTTTPELLPTTVMTTSVLPTTTPPQTLATTAFSTAVTTCPSTTPGSFSQETTKGSAFTTESETLPASNHSQRSMMTISTDIAVLRPTGSNPGILPSTSQLTTQKTTLTTSESLQKTTKSHQINSRQTILIIACCVGFVLMVLLFLAFLMSLLNCENSCGSSQSESDCCVAMASSCSAVTKDDSVGGTASTGNLSSSFMEEIQGYDVEFDPPLESKYECPICLMALREAVQTPCGHRFCKACIIKSIRDAGHKCPVDNEILLENQLFPDNFAKREILSLMVKCPNEGCLHKMELRHLEDHQAHCEFALMDCPQCQRPFQKFHINIHILKDCPRRQVSCDNCAASMAFEDKEIHDQNCPLANVICEYCNTILIREQMPNHYDLDCPTAPIPCTFSTFGCHEKMQRNHLARHLQENTQSHMRMLALWNKKRMRGPGKDPTRKCPDPRSASSPKQHPSESVYTALQRRETEVYACIENEDGSSPTAKQSPLSQERPHRFEDDGELNLVYENL
modifications: CER112, amino acids 1-22 are signal peptide
B2: CER113: Chimeric engulfment receptor: Tim4 binding, Tim4 transmembrane, TRAF6 and Baff-R signaling; SEQ ID NO: 149 (protein)
chain: MSKGLLLLWLVTELWWLYLTPAASEDTIIGFLGQPVTLPCHYLSWSQSRNSMCWGKGSCPNSKCNAELLRTDGTRIISRKSTKYTLLGKVQFGEVSLTISNTNRGDSGVYCCRIEVPGWFNDVKKNVRLELRRATTTKKPTTTTRPTTTPYVTTTTPELLPTTVMTTSVLPTTTPPQTLATTAFSTAVTTCPSTTPGSFSQETTKGSAFTTESETLPASNHSQRSMMTISTDIAVLRPTGSNPGILPSTSQLTTQKTTLTTSESLQKTTKSHQINSRQTILIIACCVGFVLMVLLFLAFLMSLLNCENSCGSSQSESDCCVAMASSCSAVTKDDSVGGTASTGNLSSSFMEEIQGYDVEFDPPLESKYECPICLMALREAVQTPCGHRFCKACIIKSIRDAGHKCPVDNEILLENQLFPDNFAKREILSLMVKCPNEGCLHKMELRHLEDHQAHCEFALMDCPQCQRPFQKFHINIHILKDCPRRQVSCDNCAASMAFEDKEIHDQNCPLANVICEYCNTILIREQMPNHYDLDCPTAPIPCTFSTFGCHEKMQRNHLARHLQENTQSHMRMLASWRRRQRRLRGASSAEAPDGDKDAPEPLDKVIILSPGISDATAPAWPPPGEDPGTTPPGHSVPVPATELGSTELVTTKTAGPEQQ
modifications: CER113, amino acids 1-22 are signal peptide
B3: CER114: Chimeric engulfment receptor: Tim4 binding, Tim4 transmembrane, TRAF6 and MERTK signaling; SEQ ID NO: 150 (protein)
chain: MSKGLLLLWLVTELWWLYLTPAASEDTIIGFLGQPVTLPCHYLSWSQSRNSMCWGKGSCPNSKCNAELLRTDGTRIISRKSTKYTLLGKVQFGEVSLTISNTNRGDSGVYCCRIEVPGWFNDVKKNVRLELRRATTTKKPTTTTRPTTTPYVTTTTPELLPTTVMTTSVLPTTTPPQTLATTAFSTAVTTCPSTTPGSFSQETTKGSAFTTESETLPASNHSQRSMMTISTDIAVLRPTGSNPGILPSTSQLTTQKTTLTTSESLQKTTKSHQINSRQTILIIACCVGFVLMVLLFLAFLMSLLNCENSCGSSQSESDCCVAMASSCSAVTKDDSVGGTASTGNLSSSFMEEIQGYDVEFDPPLESKYECPICLMALREAVQTPCGHRFCKACIIKSIRDAGHKCPVDNEILLENQLFPDNFAKREILSLMVKCPNEGCLHKMELRHLEDHQAHCEFALMDCPQCQRPFQKFHINIHILKDCPRRQVSCDNCAASMAFEDKEIHDQNCPLANVICEYCNTILIREQMPNHYDLDCPTAPIPCTFSTFGCHEKMQRNHLARHLQENTQSHMRMLAALRRRVQETKFGGAFSEEDSQLVVNYRAKKSFCRRAIELTLQSLGVSEELQNKLEDVVIDRNLLVLGKVLGEGEFGSVMEGNLKQEDGTSQKVAVKTMKLDNFSQREIEEFLSEAACMKDFNHPNVIRLLGVCIELSSQGIPKPMVILPFMKYGDLHTFLLYSRLNTGPKYIHLQTLLKFMMDIAQGMEYLSNRNFLHRDLAARNCMLRDDMTVCVADFGLSKKIYSGDYYRQGRIAKMPVKWIAIESLADRVYTSKSDVWAFGVTMWEITTRGMTPYPGVQNHEMYDYLLHGHRLKQPEDCLDELYDIMYSCWSADPLDRPTFSVLRLQLEKLSESLPDAQDKESIIYINTQLLESCEGIANGPSLTGLDMNIDPDSIIASCTPGAAVSVVTAEVHENNLREERYILNGGNEEWEDVSSTPFAAVTPEKDGVLPEDRLTKNGVSWSHHSTLPLGSPSPDELLFVDDSLEDSEVLM
modifications: CER114, amino acids 1-22 are signal peptide

Experiments:
SCC152 target cells = experiment: Phagocytosis of SCC152 by CD4+ T cell/CER, fluorescence microscopy with hybrid capture; format: cell-based; details: TRAF-domain CERs, 4 hours, 1:1:0.5 (CD8:CD4:target cell); versus CD4+ control + CD8+/E7 TCR
Procedure: (§1) FIG. 28 is a bar graph representing quantification of CD4+ T cell-CER mediated phagocytosis of SCC152 target cells. Results calculated as ((number of phagocytic target events)/(total number of effectors))*100 from 3×3 40× images, 4 hours after initiation of co-culture assay. CD8+ T cells transduced with HPV16 E7 TCR and CD4+ T cells transduced with selected CERs (CER5, CER17, CER19, CER21, CER23, CER26, CER27, CER103b, CER104, CER105, CER106, or CER116) were co-cultured with SCC152 squamous head and neck carcinoma target cells at a 1:1:0.5 ratio for 4 hours and imaged.
as §1, with “29” for “28”, “(median area ratio” for “((number”, “of” for “of phagocytic”, “events in effector cells*% phagocytosis)” for “events)/(total number of effectors))*100”
(§2) FIG. 55 is a bar graph representing quantification of CD4+ T cell-CER mediated phagocytosis of SCC152 target cells. Percent phagocytosis was calculated as ((number of phagocytic target events)/(total number of effector cells))*100. These numbers were calculated from 3×3 images captured by Keyence BZ-X710 fluorescence microscope at 40× resolution, 4 hours after initiation of co-culture assay. CD8+ T cells transduced with HPV16 E7 TCR and CD4+ T cells transduced with a selected CER (CER29, CER30, CER110, CER112, CER113, CER114, CER116, or CER117) were co-cultured with SCC152 target cells at a 1:1:0.5 ratio (CD8:CD4:target cell) for 4 hours and imaged.
as §2, with “56” for “55”, “Adjusted phagocytic index” for “Percent phagocytosis”, “(median area ratio” for “((number”, “of” for “of phagocytic”, “events in” for “events)/(total number of”, “cells*% phagocytosis).” for “cells))*100.”
Phagocytic activity of CD4+ T cell/CER+CD8+ T cell/HPV16 E7 TCR combinations co-cultured with SCC152 cells was visualized and quantified using KEYENCE BZ-X710 fluorescence microscope, […] and hybrid capture software.

SCC152 cells = experiment: Elimination of GFP-expressing SCC152 target cells over time (quantification and time lapse imaging); format: cell-based; details: for elimination of SCC152 cells, time lapse imaging: 0 to 36 hrs, compared to the control; for elimination of SCC152 cells (GFP quantification): by 36 hrs, 1:1:1 ratio (CD8:CD4:target cell), compared to control
Summary of the method: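 GFP-labelled SCC152 (HPV16+) target cells were co-cultured at 1:1:1 with CD8+ T cells carrying an HPV16 E7 TCR and with CD4+ T cells transduced with a chimeric CER or a control. Remaining target cells were counted by fluorescence imaging and automated software at 0, 12, 24, 36 h or 0, 24, 48 h.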

| Molecule | engulfment of SCC152 target cells (percent phagocytosis, adjusted phagocytic index) (SCC152 target cells) | elimination of SCC152 cells, time lapse imaging (SCC152 cells) | elimination of SCC152 cells (GFP quantification) (SCC152 cells) |
| --- | --- | --- | --- |
| B1 | enhanced engulfment | enhanced elimination of SCC152 cells | nearly complete elimination |
| B2 | enhanced engulfment | enhanced elimination of SCC152 cells | nearly complete elimination |
| B3 | enhanced engulfment | enhanced elimination of SCC152 cells | nearly complete elimination |

Source: US12303551B2, “Cellular immunotherapy compositions and uses thereof” (CERO THERPEUTICS HOLDINGS, INC., priority 2018, dated 2025)
